The values that follow come from the supplement of paper PMC5998384.

For data set [1], the system named is HeLa Kyoto. Briefly: thermal stability score vs G1/S (z-score of summed log2 fold changes over temperatures); higher = more thermally stable than in G1/S.
Data set [2] has as its system HeLa Kyoto. Briefly: solubility change mitosis vs G1/S (difference of NP-40 vs SDS log2 ratios) (log2 ratio difference); higher = more soluble in mitosis.
In data set [3] the test system is HeLa Kyoto. The experiment in a line: melting temperature (median over replicates), in situ; higher = more thermally stable.
The subject of data set [4] is HeLa Kyoto. The experiment in a line: solubility in G1/S (NP-40 vs SDS abundance) (log2 ratio); higher = more soluble. The note with it: cell cycle stage: G1/S.
[5] abbreviates: cell cycle stage: early G1 (4.5 h after nocodazole release).
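For melting temperature (median over replicates), in situ in this document: HeLa Kyoto cells synchronized by double thymidine or nocodazole block, proteins quantified by TMT10plex mass spectrometry, three independent biological replicates.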
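For solubility change mitosis vs G1/S (difference of NP-40 vs SDS log2 ratios) in this document: synchronized HeLa Kyoto cells (double thymidine block for G1/S, nocodazole release for mitosis), protein amounts in NP-40 versus SDS lysates quantified by mass spectrometry, three biological replicates.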
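For solubility in G1/S (NP-40 vs SDS abundance) in this document: HeLa Kyoto cells arrested at G1/S by double thymidine block, proteins quantified by TMT10plex mass spectrometry in mild NP-40 versus SDS extracts, three biological replicates.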
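For thermal stability score vs G1/S (z-score of summed log2 fold changes over temperatures) in this document: synchronized HeLa Kyoto cells, proteins quantified by TMT10plex mass spectrometry, three biological replicates, mitosis taken 0.5 h after nocodazole release, G1/S directly after double thymidine block.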

On to “MDGLLNPRESSKFIAENSRDVFIDSGGVRRVAELLLAKAAGPELRVEGWKALHELNPRAADEAAVNWVFVTDTLNFSFWSEQDEHKCVVRYRGKTYSGYWSLCAAVNRALDEGIPITSASYYATVTLDQVRNILRSDTDVSMPLVEERHRILNETGKILLEKFGGSFLNCVRESENSAQKLMHLVVESFPSYRDVTLFEGKRVSFYKRAQILVADTWSVLEGKGDGCFKDISSITMFADYRLPQVLAHLGALKYSDDLLKKLLKGEMLSYGDRQEVEIRGCSLWCVELIRDCLLELIEQKGEKPNGEINSILLDYYLWDYAHDHREDMKGIPFHRIRCIYY [C9ORF64]”, for which the thermal stability score in data set [1] (setting [5]) is -1.65; in data set [1] (cell cycle stage: mitosis), 0.153. Moreover, in data set [2], the “solubility change mitosis (log2)” value was -0.283. Also, the melting temperature in data set [3] (cell cycle stage: G1/S) was determined as 50.2 °C; in data set [3] (cell cycle stage: mitosis) it was 49.7 °C. Besides, in data set [4], the “solubility in G1/S (log2)” value was -0.318.

Take “MDGTRTSLDIEEYSDTEVQKNQVLTLEEWQDKWVNGKTAFHQEQGHQLLKKHLDTFLKGKSGLRVFFPLCGKAVEMKWFADRGHSVVGVEISELGIQEFFTEQNLSYSEEPITEIPGTKVFKSSSGNISLYCCSIFDLPRTNIGKFDMIWDRGALVAINPGDRKCYADTMFSLLGKKFQYLLCVLSYDPTKHPGPPFYVPHAEIERLFGKICNIRCLEKVDAFEERHKSWGIDCLFEKLYLLTEK [TPMT]”: the thermal stability score was -0.85 in data set [1] (setting [5]) and -0.417 in data set [1] (cell cycle stage: mitosis). For the same sequence, the “solubility change mitosis (log2)” value in data set [2] was -0.18. Also, the melting temperature in data set [3] (cell cycle stage: G1/S) and in data set [3] (cell cycle stage: mitosis) was 54 °C in each case. Besides, the “solubility in G1/S (log2)” value in data set [4] came out at 0.0374.

Consider “MDKLKKVLSGQDTEDRSGLSEVVEASSLSWSTRIKGFIACFAIGILCSLLGTVLLWVPRKGLHLFAVFYTFGNIASIGSTIFLMGPVKQLKRMFEPTRLIATIMVLLCFALTLCSAFWWHNKGLALIFCILQSLALTWYSLSFIPFARDAVKKCFAVCLA [SFT2D2]”, for which the thermal stability score in data set [1] (setting [5]) was -0.835; in data set [1] (cell cycle stage: mitosis), -0.774. Also, the “solubility change mitosis (log2)” value in data set [2] stood at 0.0654. Moreover, the melting temperature in data set [3] (cell cycle stage: G1/S) is 57.4 °C; in data set [3] (cell cycle stage: mitosis), 61.1 °C. Also, the “solubility in G1/S (log2)” value in data set [4] came to 0.0285.

In the case of “MDKNELVQKAKLAEQAERYDDMAACMKSVTEQGAELSNEERNLLSVAYKNVVGARRSSWRVVSSIEQKTEGAEKKQQMAREYREKIETELRDICNDVLSLLEKFLIPNASQAESKVFYLKMKGDYYRYLAEVAAGDDKKGIVDQSQQAYQEAFEISKKEMQPTHPIRLGLALNFSVFYYEILNSPEKACSLAKTAFDEAIAELDTLSEESYKDSTLIMQLLRDNLTLWTSDTQGDEAEAGEGGEN [YWHAZ]”, the thermal stability score is -3.76 in data set [1] (setting [5]) and -3.47 in data set [1] (cell cycle stage: mitosis). Besides, the “solubility change mitosis (log2)” value in data set [2] was found to be 0.346. Also, the results for the melting temperature in data set [3] (cell cycle stage: G1/S) and in data set [3] (cell cycle stage: mitosis) were 54.9 °C and 54.8 °C, respectively. In addition, the “solubility in G1/S (log2)” value in data set [4] is 0.359.

Take “MDLLPPKPKYNPLRNESLSSLEEGASGSTPPEELPSPSASSLGPILPPLPGDDSPTTLCSFFPRMSNLRLANPAGGRPGSKGEPGRAADDGEGIVGAAMPDSGPLPLLQDMNKLSGGGGRRTRVEGGQLGGEEWTRHGSFVNKPTRGWLHPNDKVMGPGVSYLVRYMGCVEVLQSMRALDFNTRTQVTREAISLVCEAVPGAKGATRRRKPCSRPLSSILGRSNLKFAGMPITLTVSTSSLNLMAADCKQIIANHHMQSISFASGGDPDTAEYVAYVAKDPVNQRACHILECPEGLAQDVISTIGQAFELRFKQYLRNPPKLVTPHDRMAGFDGSAWDEEEEEPPDHQYYNDFPGKEPPLGGVVDMRLREGAAPGAARPTAPNAQTPSHLGATLPVGQPVGGDPEVRKQMPPPPPCPGRELFDDPSYVNVQNLDKARQAVGGAGPPNPAINGSAPRDLFDMKPFEDALRVPPPPQSVSMAEQLRGEPWFHGKLSRREAEALLQLNGDFLVRESTTTPGQYVLTGLQSGQPKHLLLVDPEGVVRTKDHRFESVSHLISYHMDNHLPIISAGSELCLQQPVERKL [SHC1]”: the thermal stability score was -1.86 in data set [1] (setting [5]) and -2.06 in data set [1] (cell cycle stage: mitosis). Further, in data set [2], the “solubility change mitosis (log2)” value was -0.067. Moreover, the melting temperature in data set [3] (cell cycle stage: G1/S) was found to be 52.5 °C; in data set [3] (cell cycle stage: mitosis) it was 52.9 °C. Also, the “solubility in G1/S (log2)” value in data set [4] is 0.307.

In the case of “MDLMNGQASSVNIAATASEKSSSSESLSDKGSELKKSFDAVVFDVLKVTPEEYAGQITLMDVPVFKAIQPDELSSCGWNKKEKYSSAPNAVAFTRRFNHVSFWVVREILHAQTLKIRAEVLSHYIKTAKKLYELNNLHALMAVVSGLQSAPIFRLTKTWALLSRKDKTTFEKLEYVMSKEDNYKRLRDYISSLKMTPCIPYLGIYLSDLTYIDSAYPSTGSILENEQRSNLMNNILRIISDLQQSCEYDIPMLPHVQKYLNSVQYIEELQKFVEDDNYKLSLKIEPGTSTPRSAASREDLVGPEVGASPQSGRKSVAAEGALLPQTPPSPRNLIPHGHRKCHSLGYNFIHKMNTAEFKSATFPNAGPRHLLDDSVMEPHAPSRGQAESSTLSSGISIGSSDGSELSEETSWPAFERNRLYHSLGPVTRVARNGYRSHMKASSSAESEDLAVHLYPGAVTIQGVLRRKTLLKEGKKPTVASWTKYWAALCGTQLFYYAAKSLKATERKHFKSTSNKNVSVIGWMVMMADDPEHPDLFLLTDSEKGNSYKFQAGNRMNAMLWFKHLSAACQSNKQQVPTNLMTFE [RALGPS2]”, the thermal stability score is -0.455 in data set [1] (setting [5]) and -0.819 in data set [1] (cell cycle stage: mitosis). Moreover, the “solubility change mitosis (log2)” value in data set [2] was -0.165. The melting temperature in data set [3] (cell cycle stage: G1/S) worked out at 51 °C; in data set [3] (cell cycle stage: mitosis), 50.5 °C. Further, in data set [4], the “solubility in G1/S (log2)” value came out at 0.0658.

Consider “MDLRVGQRPPVEPPPEPTLLALQRPQRLHHHLFLAGLQQQRSVEPMRLSMDTPMPELQVGPQEQELRQLLHKDKSKRSAVASSVVKQKLAEVILKKQQAALERTVHPNSPGIPYRTLEPLETEGATRSMLSSFLPPVPSLPSDPPEHFPLRKTVSEPNLKLRYKPKKSLERRKNPLLRKESAPPSLRRRPAETLGDSSPSSSSTPASGCSSPNDSEHGPNPILGSEALLGQRLRLQETSVAPFALPTVSLLPAITLGLPAPARADSDRRTHPTLGPRGPILGSPHTPLFLPHGLEPEAGGTLPSRLQPILLLDPSGSHAPLLTVPGLGPLPFHFAQSLMTTERLSGSGLHWPLSRTRSEPLPPSATAPPPPGPMQPRLEQLKTHVQVIKRSAKPSEKPRLRQIPSAEDLETDGGGPGQVVDDGLEHRELGHGQPEARGPAPLQQHPQVLLWEQQRLAGRLPRGSTGDTVLLPLAQGGHRPLSRAQSSPAAPASLSAPEPASQARVLSSSETPARTLPFTTGLIYDSVMLKHQCSCGDNSRHPEHAGRIQSIWSRLQERGLRSQCECLRGRKASLEELQSVHSERHVLLYGTNPLSRLKLDNGKLAGLLAQRMFVMLPCGGVGVDTDTIWNELHSSNAARWAAGSVTDLAFKVASRELKNGFAVVRPPGHHADHSTAMGFCFFNSVAIACRQLQQQSKASKILIVDWDVHHGNGTQQTFYQDPSVLYISLHRHDDGNFFPGSGAVDEVGAGSGEGFNVNVAWAGGLDPPMGDPEYLAAFRIVVMPIAREFSPDLVLVSAGFDAAEGHPAPLGGYHVSAKCFGYMTQQLMNLAGGAVVLALEGGHDLTAICDASEACVAALLGNRVDPLSEEGWKQKPNLNAIRSLEAVIRVHSKYWGCMQRLASCPDSWVPRVPGADKEEVEAVTALASLSVGILAEDRPSEQLVEEEEPMNL [HDAC7]”, for which the thermal stability score in data set [1] (setting [5]) was 0.178; in data set [1] (cell cycle stage: mitosis) it was -0.224. For the same sequence, in data set [2], the “solubility change mitosis (log2)” value was 0.0342. Also, the melting temperature in data set [3] (cell cycle stage: G1/S) amounted to 53 °C; in data set [3] (cell cycle stage: mitosis), 52.3 °C. The “solubility in G1/S (log2)” value in data set [4] is 0.129.
